Two substances from publication PMC13186710 can be followed below.

Assay [1] addresses Nonphosphorylated, SAG21k-bound FLAG-tagged mouse Smoothened (residues 64-674) S570C (mouse) (UniProt P56726). The assay is described as follows: cross-linking; disulfide trapping with 5 mM diamide, 1 h, room temperature; FLAG-SMO (4 ul of 12.5 uM) and PKA-C (4 ul of 6.25 uM) in 10 ul, 20 mM HEPES, 150 mM NaCl, 0.025% GDN, SAG21k, 1 mM ATP, 10 mM MgCl2, pH 8.0; non-reducing SDS-PAGE.

Assay [2] has as its target GRK2-phosphorylated FLAG-tagged mouse Smoothened (residues 64-674) I573A F577A R580A (mouse) (UniProt P56726). The assay is described as follows: SPR; biotinylated SMO nanodiscs captured (Biotin CAPture kit, 250-350 RU); myr-PKA-Cα-K7C 16 nM-1 uM injected; 20 mM MOPS pH 7.0, 150 mM NaCl, 100 uM EDTA, 1 mM ATP, 10 mM MgCl2, 0.001% P20, 25 °C; Biacore 3000; steady-state analysis. A general note: SPR reads the build-up and loss of mass on a sensor chip optically.

For assay [3], the target named is GRK2-phosphorylated FLAG-tagged mouse Smoothened (residues 64-674), wild type (mouse) (UniProt P56726). The description is as above.

In assay [1], “Mouse PKA-C G136C in the minimal-cysteine ((−)Cys, C199A) background (enzyme)” displayed a percent of the disulfide trapping that depends on SMO phosphorylation (against pSMO S570C) of 54%. The Kd is the constant that tells how readily two partners part at equilibrium. The low end stands for a tighter complex, the high end for a looser complex. Myristoylated PKA-Cα K7C (enzyme): the Kd in assay [2] was determined as 222 nM; in assay [3], 82 nM.
